Measurements published in patent US20240368269A1 (Memorial Sloan Kettering, published 2024).

Key:
hDLL3 = molecular target: T1, hDLL3 (human, UniProt Q9NYJ7 27-492, limits assumed); assay: Affinity hDLL3 of Table 30; method not given
T1 construct: also called human DLL3
T1 sequence: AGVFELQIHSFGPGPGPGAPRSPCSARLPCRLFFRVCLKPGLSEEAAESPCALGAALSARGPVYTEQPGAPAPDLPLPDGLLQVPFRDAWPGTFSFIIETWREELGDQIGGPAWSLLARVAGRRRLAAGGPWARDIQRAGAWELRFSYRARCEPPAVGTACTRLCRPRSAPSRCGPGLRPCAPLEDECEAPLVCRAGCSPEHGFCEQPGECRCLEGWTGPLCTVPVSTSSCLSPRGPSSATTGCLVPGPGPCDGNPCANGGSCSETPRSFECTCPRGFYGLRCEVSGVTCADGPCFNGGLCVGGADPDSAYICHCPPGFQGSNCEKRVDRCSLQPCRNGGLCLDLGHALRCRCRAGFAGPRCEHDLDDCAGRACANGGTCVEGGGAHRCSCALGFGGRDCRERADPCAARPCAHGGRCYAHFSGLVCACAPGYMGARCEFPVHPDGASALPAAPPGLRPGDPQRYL

[1] = molecular target: T2, DLL3 (target in the Fab-Zap internalization assay) (UniProt Q9NYJ7 27-618, limits assumed); assay: cell-based or functional assay
T2 sequence (looked up): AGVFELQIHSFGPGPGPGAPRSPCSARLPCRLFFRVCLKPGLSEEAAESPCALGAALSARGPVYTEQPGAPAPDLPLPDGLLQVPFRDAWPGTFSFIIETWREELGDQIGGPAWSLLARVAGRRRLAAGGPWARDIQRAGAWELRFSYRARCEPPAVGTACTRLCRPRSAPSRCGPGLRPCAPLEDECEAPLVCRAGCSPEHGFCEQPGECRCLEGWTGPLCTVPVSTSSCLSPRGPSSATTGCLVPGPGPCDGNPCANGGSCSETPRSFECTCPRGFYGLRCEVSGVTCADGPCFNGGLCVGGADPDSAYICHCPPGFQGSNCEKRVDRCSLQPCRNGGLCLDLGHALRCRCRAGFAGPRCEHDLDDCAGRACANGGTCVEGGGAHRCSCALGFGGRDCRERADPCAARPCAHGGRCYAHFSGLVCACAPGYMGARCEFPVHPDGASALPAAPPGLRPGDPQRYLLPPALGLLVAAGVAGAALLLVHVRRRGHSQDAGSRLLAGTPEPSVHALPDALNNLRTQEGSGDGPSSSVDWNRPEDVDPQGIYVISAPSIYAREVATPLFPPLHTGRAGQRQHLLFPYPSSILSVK

B1: B2 (antibody, V domains shown)
VH: QVQLVQSGAEVKKPGASVKVSCKASGYTFTSYYMHWVRQAPGQGLEWMGIINPSGGSTSYAQKFRGRVTMTRDTSTSTVYMELSSLRSEDTAVYYCARGDYDILTDYYYNMDVWGQGTTVTVSS
VL: DIQMTQSPSAMSASVGDRVTITCRASQGISNYLAWFQQKPGKVPKRLIYAASSLQSGVPSRFSGSGSGTEFTLTISSLQPEDFATYYCLQHNSYPYTFGQGTKLEIK
notes: Purified hybridoma monoclonal antibody (Ablexis AlivaMab Kappa mice); format there not clear; also called 3-B2-A
B1 was tested, and the Kd (hDLL3) was 3.55 nM and the “Percent Max Killing (Fab-Zap internalization assay, 10 ug/ml)” value [1] was 71.4%.
